Measurements as given in article PMC4786784 (Nature Communications, 2016).

Tests used:
U2AF65 1,2L [1] = target: T1, U2AF65 1,2L (human, UniProt P26368 141-342); experiment: fluorescence anisotropy; Anisotropy: 100 mM NaCl, 15 mM HEPES pH 6.8, 0.2 mM TCEP, 0.1 U/ul Superase-In, 30 nM RNA, 23 C; smFRET: 50 mM HEPES pH 7.4, 100 mM NaCl, room temperature
flU2AF65;U2AF35-UHM = flU2AF65;U2AF35-UHM (human;human, UniProt P26368;Q01081 1-475;43-146, |); experiment: as above
U2AF65 1,2L [2] = target: T1, U2AF65 1,2L; experiment: as above; remark: listed apart in the source
U2AF65 1,2L FRET [3] = target: T2, U2AF65 1,2L FRET (human, UniProt P26368 113-343, A181C;C305A;Q324C); experiment: smFRET; slide-tethered protein, 5 uM RNA; Anisotropy: 100 mM NaCl, 15 mM HEPES pH 6.8, 0.2 mM TCEP, 0.1 U/ul Superase-In, 30 nM RNA, 23 C; smFRET: 50 mM HEPES pH 7.4, 100 mM NaCl, room temperature
[4] = target: T3, full-length human U2AF^65 (residues 1–475) (human, UniProt P26368-1 1-475); experiment: SEC; U2AF65 combined with slight excess U2AF35-UHM (ratio 1:1.2), dialysed overnight, heterodimer purified on Superdex-200 prep-grade in 150 mM NaCl, 25 mM HEPES pH 6.8, 0.2 mM TCEP; details: both partners purified
T3 construct: U2AF65 (U2AF2), human, full length, residues 1-475; also called flU2AF^65; U2AF2; source: expressed as a GST fusion protein, purified (GST cleavage, SP-HiTrap ion exchange)

U2AF65 1,2L NLALA = U2AF65 1,2L NLALA (human, UniProt P26368 141-342, S251N;T252L;V253A;V254L;P255A); experiment: fluorescence anisotropy; Anisotropy: 100 mM NaCl, 15 mM HEPES pH 6.8, 0.2 mM TCEP, 0.1 U/ul Superase-In, 30 nM RNA, 23 C; smFRET: 50 mM HEPES pH 7.4, 100 mM NaCl, room temperature
U2AF65 1,2L 12Gly = U2AF65 1,2L 12Gly (human, UniProt P26368 141-342, M144G;L235G;M238G;V244G;V246G;V249G;V250G;S251G;T252G;V253G;V254G;P255G); experiment: as above
U2AF65 1,2L Q147A = U2AF65 1,2L Q147A (human, UniProt P26368 141-342, Q147A); experiment: as above
U2AF65 1,2L 3Gly = U2AF65 1,2L 3Gly (human, UniProt P26368 141-342, V249G;V250G;V254G); experiment: as above
U2AF65 1,2L R227A = U2AF65 1,2L R227A (human, UniProt P26368 141-342, R227A); experiment: as above
dU2AF65 1,2 = dU2AF65 1,2 (human, UniProt P26368 148-336, del238-257); experiment: as above
dU2AF65 1,2L = dU2AF65 1,2L (human, UniProt P26368 141-342, del238-257); experiment: as above
U2AF65 1,2L 3Mut = U2AF65 1,2L 3Mut (human, UniProt P26368 141-342, Q147A;R227A;V254P); experiment: as above
U2AF65 1,2L V254P = U2AF65 1,2L V254P (human, UniProt P26368 141-342, V254P); experiment: as above
U2AF65 1,2L 5Gly = U2AF65 1,2L 5Gly (human, UniProt P26368 141-342, S251G;T252G;V253G;V254G;P255G); experiment: as above
U2AF65 1,2L FRET [5] = target: T2, U2AF65 1,2L FRET; experiment: smFRET; slide-tethered protein, 10 uM RNA; Anisotropy: 100 mM NaCl, 15 mM HEPES pH 6.8, 0.2 mM TCEP, 0.1 U/ul Superase-In, 30 nM RNA, 23 C; smFRET: 50 mM HEPES pH 7.4, 100 mM NaCl, room temperature

T1 sequence (P26368 141-342, one chain of several): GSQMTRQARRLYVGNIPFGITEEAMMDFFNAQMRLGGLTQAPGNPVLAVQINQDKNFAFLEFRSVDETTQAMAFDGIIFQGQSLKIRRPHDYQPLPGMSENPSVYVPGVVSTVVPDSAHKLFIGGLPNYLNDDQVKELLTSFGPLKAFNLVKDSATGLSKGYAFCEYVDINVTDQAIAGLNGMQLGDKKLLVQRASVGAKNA
Sequence of flU2AF65;U2AF35-UHM (P26368 whole entry, one chain of several): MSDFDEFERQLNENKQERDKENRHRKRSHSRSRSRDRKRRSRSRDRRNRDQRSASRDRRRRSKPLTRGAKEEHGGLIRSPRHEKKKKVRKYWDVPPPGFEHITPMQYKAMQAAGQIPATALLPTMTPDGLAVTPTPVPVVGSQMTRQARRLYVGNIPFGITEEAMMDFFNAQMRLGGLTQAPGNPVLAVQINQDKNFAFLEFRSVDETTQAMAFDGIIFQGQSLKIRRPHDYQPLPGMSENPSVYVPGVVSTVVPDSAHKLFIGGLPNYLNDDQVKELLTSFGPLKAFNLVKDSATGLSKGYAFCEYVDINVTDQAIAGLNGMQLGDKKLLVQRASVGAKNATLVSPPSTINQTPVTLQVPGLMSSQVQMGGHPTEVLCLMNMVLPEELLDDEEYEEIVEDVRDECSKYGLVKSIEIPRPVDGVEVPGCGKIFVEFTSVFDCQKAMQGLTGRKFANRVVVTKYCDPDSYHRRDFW
T2 sequence (P26368 113-343 A181C/C305A/Q324C, one chain of several): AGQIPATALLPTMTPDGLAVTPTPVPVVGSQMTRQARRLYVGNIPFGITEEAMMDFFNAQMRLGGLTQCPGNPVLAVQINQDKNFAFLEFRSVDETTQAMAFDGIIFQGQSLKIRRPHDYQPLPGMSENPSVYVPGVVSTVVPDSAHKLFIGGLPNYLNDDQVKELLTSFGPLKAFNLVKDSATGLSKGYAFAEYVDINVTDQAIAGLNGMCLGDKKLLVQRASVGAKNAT
Sequence of U2AF65 1,2L 12Gly (P26368 141-342 M144G/L235G/M238G/V244G/V246G/V249G/V250G/S251G/T252G/V253G/V254G/P255G, one chain of several): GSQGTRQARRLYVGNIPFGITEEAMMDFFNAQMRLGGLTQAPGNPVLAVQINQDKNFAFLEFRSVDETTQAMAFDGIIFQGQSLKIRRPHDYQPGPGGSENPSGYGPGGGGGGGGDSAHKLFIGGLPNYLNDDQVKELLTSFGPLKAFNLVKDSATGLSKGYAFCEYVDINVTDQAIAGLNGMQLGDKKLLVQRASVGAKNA
Sequence of U2AF65 1,2L 3Mut (P26368 141-342 Q147A/R227A/V254P, one chain of several): as the sequence (P26368 141-342, one chain of several) above, with Q7A, R87A, V114P counted along it
Sequence of dU2AF65 1,2L (P26368 other isoform, or with tags, fused parts or gaps del238-257): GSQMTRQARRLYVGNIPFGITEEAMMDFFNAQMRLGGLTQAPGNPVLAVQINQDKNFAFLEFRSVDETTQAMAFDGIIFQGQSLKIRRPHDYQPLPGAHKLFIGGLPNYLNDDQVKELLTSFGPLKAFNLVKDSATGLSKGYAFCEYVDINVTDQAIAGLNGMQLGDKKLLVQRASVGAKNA
Sequence of U2AF65 1,2L 5Gly (P26368 141-342 S251G/T252G/V253G/V254G/P255G, one chain of several): as the sequence (P26368 141-342, one chain of several) above, with S111G, T112G, V113G, V114G, P115G counted along it
Sequence of U2AF65 1,2L Q147A (P26368 141-342 Q147A, one chain of several): as the sequence (P26368 141-342, one chain of several) above, with Q7A counted along it
Sequence of dU2AF65 1,2 (P26368 other isoform, or with tags, fused parts or gaps del238-257): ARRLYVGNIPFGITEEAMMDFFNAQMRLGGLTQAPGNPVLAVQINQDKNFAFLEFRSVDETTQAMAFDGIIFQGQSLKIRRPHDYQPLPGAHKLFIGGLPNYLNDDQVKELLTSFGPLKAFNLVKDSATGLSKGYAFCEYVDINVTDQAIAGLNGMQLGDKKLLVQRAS
T3 sequence (P26368 whole entry, the tested form may be a part): as the sequence (P26368 whole entry, one chain of several) above
Sequence of U2AF65 1,2L NLALA (P26368 141-342 S251N/T252L/V253A/V254L/P255A, one chain of several): as the sequence (P26368 141-342, one chain of several) above, with S111N, T112L, V113A, V114L, P115A counted along it
Sequence of U2AF65 1,2L R227A (P26368 141-342 R227A, one chain of several): as the sequence (P26368 141-342, one chain of several) above, with R87A counted along it
Sequence of U2AF65 1,2L 3Gly (P26368 141-342 V249G/V250G/V254G, one chain of several): as the sequence (P26368 141-342, one chain of several) above, with V109G, V110G, V114G counted along it
Sequence of U2AF65 1,2L V254P (P26368 141-342 V254P, one chain of several): as the sequence (P26368 141-342, one chain of several) above, with V114P counted along it

B1: AdML Py tract rArA mutant (ssRNA)
RNA: CUUUUUAAUUUCC
binding signal (U2AF65 1,2L [1]): ~5 fold lower affinity than AdML

B2: 3'-4rU (ssRNA)
RNA: CCCCCCCUUUUCC
Kd (flU2AF65;U2AF35-UHM): 414 ± 12 nM | Kd (U2AF65 1,2L [2]): 417 ± 10 nM

B3: AdML Py tract 12mer (ssRNA)
RNA: CCUUUUUUUUCC
binding result (U2AF65 1,2L FRET [3]): binds

B4: 5'-4rU (ssRNA)
RNA: CCUUUUCCCCCCC
Kd (flU2AF65;U2AF35-UHM): 41 ± 2 nM | Kd (U2AF65 1,2L [2]): 31 ± 3 nM

B5: U2AF^35-UHM (U2AF homology motif; residues 43–146) (domain or fragment, UniProt Q01081-1 43-146, looked up)
chain: SQTIALLNIYRNPQNSSQSADGLRCAVSDVEMQEHYDEFFEEVFTEMEEKYGEVEEMNVCDNLGDHLVGNVYVKFRREEDAEKAVIDLNNRWFNGQPIHAELSP
notes: also called heterodimerization domain of the U2AF^35 subunit; U2AF1; source: expressed as a GST fusion protein, purified (GST cleavage, Q-HiTrap ion exchange)
binding result [4]: binds

B6: AdML Py tract 13mer (ssRNA)
RNA: CCCUUUUUUUUCC
Kd (U2AF65 1,2L NLALA): 45 ± 3 nM | Kd (flU2AF65;U2AF35-UHM): 30 ± 3 nM | Kd (U2AF65 1,2L 12Gly): 88 ± 21 nM | Kd (U2AF65 1,2L Q147A): 171 ± 21 nM | Kd (U2AF65 1,2L 3Gly): 47 ± 4 nM | Kd (U2AF65 1,2L R227A): 166 ± 2 nM | Kd (dU2AF65 1,2): 5000 ± 100 nM | Kd (dU2AF65 1,2L): 123 ± 5 nM | Kd (U2AF65 1,2L 3Mut): 5630 ± 70 nM | Kd (U2AF65 1,2L V254P): 137 ± 10 nM | Kd (U2AF65 1,2L 5Gly): 61 ± 3 nM

B7: rArA-interrupted Py tract (ssRNA)
RNA: CUUUUUAAUUUCCA
binding result (U2AF65 1,2L FRET [5]): binds
